Laboratory results taken from article PMC10953581, “SHMT2 Mediates Small‐Molecule‐Induced Alleviation of Alzheimer Pathology Via the 5′UTR‐dependent ADAM10 Translation Initiation”.

Key:
human SUMO-SHMT2 = biological target: T1, human SUMO-SHMT2 (Homo sapiens, UniProt P34897 1-504); assay: EMSA; RNA EMSA (LightShift kit): 10 pmol biotin-RNA, 6 ug protein, 1X EMSA binding buffer, 5% glycerol, 0.1 mg/mL tRNA, 20 uL, 30 min, room temperature; salt and pH not stated; conditions: protein: recombinant; tags: SUMO; chain copies: 4; label: 5' biotin
T1 sequence: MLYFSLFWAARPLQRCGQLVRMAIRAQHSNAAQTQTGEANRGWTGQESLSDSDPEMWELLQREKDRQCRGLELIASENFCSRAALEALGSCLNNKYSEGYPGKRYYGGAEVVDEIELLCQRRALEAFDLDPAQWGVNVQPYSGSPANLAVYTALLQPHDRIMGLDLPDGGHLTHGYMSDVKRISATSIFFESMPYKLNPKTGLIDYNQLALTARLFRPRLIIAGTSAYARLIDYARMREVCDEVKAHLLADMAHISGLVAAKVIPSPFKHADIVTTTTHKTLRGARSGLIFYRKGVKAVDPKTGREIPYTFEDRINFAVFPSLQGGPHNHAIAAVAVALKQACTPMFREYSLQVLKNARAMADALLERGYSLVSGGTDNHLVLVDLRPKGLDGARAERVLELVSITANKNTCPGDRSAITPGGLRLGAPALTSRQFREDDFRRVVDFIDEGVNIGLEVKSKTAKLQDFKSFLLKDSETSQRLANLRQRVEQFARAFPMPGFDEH

murine SUMO-SHMT2 = biological target: T2, murine SUMO-SHMT2 (Mus musculus, UniProt Q9CZN7 1-504); assay: as above; conditions: protein: recombinant; tags: SUMO; label: 5' biotin
T2 sequence: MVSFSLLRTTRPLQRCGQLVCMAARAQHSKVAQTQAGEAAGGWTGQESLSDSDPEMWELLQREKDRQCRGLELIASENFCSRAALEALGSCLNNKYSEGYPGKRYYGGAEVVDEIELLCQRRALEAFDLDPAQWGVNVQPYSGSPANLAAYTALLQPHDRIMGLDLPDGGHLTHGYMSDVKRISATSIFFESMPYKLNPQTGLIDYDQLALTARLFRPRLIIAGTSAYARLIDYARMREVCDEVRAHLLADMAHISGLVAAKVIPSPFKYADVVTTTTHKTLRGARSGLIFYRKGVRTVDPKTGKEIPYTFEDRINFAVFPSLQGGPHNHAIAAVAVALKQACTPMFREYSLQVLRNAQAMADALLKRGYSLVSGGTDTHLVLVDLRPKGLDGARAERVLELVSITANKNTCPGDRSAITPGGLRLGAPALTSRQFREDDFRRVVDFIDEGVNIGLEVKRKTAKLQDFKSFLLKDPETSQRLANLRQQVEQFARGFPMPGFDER

B1: 69-90 (ssRNA)
RNA: GGACGGGUAGGGGCGGGAGGUA
B1: binds (human SUMO-SHMT2).

B2: 156-175 (ssRNA)
RNA: UGAGUUUCGAAGGAGGGGGG
B2: binds (human SUMO-SHMT2).

B3: MUT69-90 (ssRNA)
RNA: GGACGGGUAGGGGCUUUAUGUA
B3: no binding (human SUMO-SHMT2).

B4: MUT156-175 (ssRNA)
RNA: UGAGUUUCGAAGUAUUUGGG
B4: no binding (human SUMO-SHMT2).

B5: MUT176-200 (ssRNA)
RNA: GAGAGAAUAUUUAACGAGCAAGGGA
B5: no binding (human SUMO-SHMT2).

B6: MUT201-222 (ssRNA)
RNA: AGUAAAUCGGGUAAAUGAGGAA
B6: no binding (human SUMO-SHMT2).

B7: 176-200 (ssRNA)
RNA: GAGAGAAGAGGGAACGAGCAAGGGA
B7: binds (human SUMO-SHMT2).

B8: MUT223-244 (ssRNA)
RNA: GGAAACGAACUAUUUGUAUUUA
B8: no binding (human SUMO-SHMT2).

B9: mouse 1-29 (ssRNA)
RNA: GAGGGCAGGGAAGCGGGGAAGGGAGGAAG
B9: binds (murine SUMO-SHMT2).

B10: mouse 30-57 (ssRNA)
RNA: GAAGAGGCCGAGGGGGAGGGAGGGCCCU
B10: binds (murine SUMO-SHMT2).

B11: mouse 58-86 (ssRNA)
RNA: GUUUUGGCGGAGCAGGGCGCGCGGCUGGG
B11: no binding (murine SUMO-SHMT2).

B12: 201-222 (ssRNA)
RNA: AGGAAAGCGGGGAAAGGAGGAA
B12: binds (human SUMO-SHMT2).

B13: 223-244 (ssRNA)
RNA: GGAAACGAACGAGGGGGAGGGA
B13: binds (human SUMO-SHMT2).
